In data set [1] the test system is U87MG cells. Particulars: U87MG cells within 24 hours; reference 6; cited from earlier work.
Data set [2] deals with U87MG cells. Description: F-actin stress fiber staining (phalloidin) in U87MG cells. In kind it is cell-based, human. As for the experimental part:
FIG. 30A depicts U87MG cells treated with SEMA3F (640 ng/ml), rapamycin (10 nM) or Torin 1 (10 nM) for 30 minutes. Subsequently, cells were stained with Alexa Fluor 488 phalloidin and Hoechst 33342 to identify F-actin cytoskeleton stress fibers and cellular nuclei, respectively. […] The scale bar indicates 20 μm. FIG. 30B depicts U87MG cells transiently transfected with a pcDNA3.1 empty vector or with a wild type (WT) mTOR plasmid and after 18 hours treated with SEMA3F (640 ng/ml) for 30 minutes. Cells were stained as described above in FIG. 30A. Representative cellular staining is shown; bar graph represents the number of fibers/cell (mean±SD) from 3 independent experiments. FIG. 30C depicts U87MG cells transfected with control siRNA or with raptor- or rictor-specific siRNAs (20 nM). After 48 hours, they were treated with SEMA3F for 30 minutes and stained with Alexa Fluor 488 phalloidin and Hoechst 33342 as above. The number of stress fibers was evaluated in 3 independent experiments and shown as the mean±SD. FIG. 30D depicts U87MG cells transiently transfected with pcDNA3.1 empty vector or with our WT mTOR plasmid. After 18 hours, the cells were treated with SEMA3F (640 ng/ml) for 10 minutes and RhoA activity was evaluated. FIG. 30E depicts U87MG cells transfected with control siRNA or with raptor- or rictor-specific siRNAs (20 nM), were treated with SEMA3F (640 ng/ml) for 10 minutes and RhoA activity was analyzed. In FIGS. 30D-30E, the intensity of active RhoA was normalized to respective total RhoA; the numbers below each gel lane represent the fold-change in intensity relative to control. FIGS. 30D-30E are representative of 3 independent experiments.
mTORC2 links SEMA3F biology with the F-actin cytoskeleton. It was next determined whether the inhibition of mTORC2 serves as an intermediary response to link SEMA3F activity with cytoskeletal collapse. U87MG cells were treated either with SEMA3F (640 ng/ml), rapamycin (10 nM) or Torin 1 (10 nM) for 30 minutes and the actin cytoskeleton was visualized using phalloidin staining. […] These findings indicate that SEMA3F has minimal direct effects on mTORC1.
F-actin staining: Cells were fixed with 4% paraformaldehyde (PFA) followed by permeabilization with 0.2% Triton X-100 in PBS. F-actin and nuclei were stained with Alexa Fluor 488 phalloidin and Hoechst 33342, respectively. Confocal images from 3-5 areas of each culture were reviewed and stress fibers were counted in representative individual cells (˜5/experiment) using standard methodology as described6.

The test system of another data set is VEGF promoter. Briefly: VEGF promoter luciferase assay in U87MG cells. In kind it is cell-based, human. As for the experimental part: FIGS. 31A-31B depict U87MG cells transiently co-transfected with a full-length human VEGF promoter luciferase plasmid and a pGL4.74 [hRluc/TK] plasmid as an internal control. Cells were treated with SEMA3F (640 ng/ml for 30 minutes) prior to the addition of DFO (250 μM) or the culture of cells in a hypoxia chamber (1% 02). After 18 hours, VEGF promoter luciferase activity was analyzed. FIG. 31C depicts a graph of U87MG cells transiently cotransfected with our VEGF promoter luciferase and pGL4.74 [hRluc/TK] plasmids and with either a pcDNA3.1 empty vector or our constitutively active Akt (2DAkt). The cells were treated with SEMA3F for 30 minutes prior to the addition of DFO. After 18 hours, VEGF promoter luciferase activity was analyzed. FIG. 31D depicts a graph of parental U87MG cells treated with SEMA3F, rapamycin (10 nM), Torin 1 (10 nM) alone or in combination as indicated for 30 minutes prior to the addition of DFO, and culture supernatants were collected after 18 hours; VEGF protein levels were analyzed by ELISA. In each panel data are representative of 3 independent experiments. Bar graphs represent the mean±SD of n=3 experiments performed in triplicate, *, p<0.01 vs. control.
SEMA3F inhibits hypoxia-induced production of VEGF via the mTOR pathway. The local expression and regulation of VEGF is key to many physiological and pathological processes (40, 41). These findings indicate that SEMA3F can target the transcriptional activation of VEGF via its ability to target mTOR kinase activity (36, 42). To test the effect of SEMA3F on the regulation of VEGF expression, U87MG cells were transfected with a full-length 2.6 kb VEGF promoter-luciferase construct and exposed to the hypoxia mimetic agent desferrioxamine (DFO) or hypoxia (1% 02). […] To test the relative effect of SEMA3F on mTORC1/C2, U87MG cells transiently co-transfected with the 2DAkt construct and the full length VEGF promoter reporter construct, and the cells cultured in the absence or presence of SEMA3F. […] Finally, the effect of SEMA3F on the secretion of VEGF into conditioned media (by ELISA) was determined in the absence or presence of DFO.
Transfection and Luciferase assay: U87MG cells were transiently transfected with plasmid constructs (pcDNA3.1, WT mTOR, 2DAkt, VEGF luciferase reporter plasmid or pGL4.74 [hRluc/TK]) as indicated using Lipofectamine 2000 reagent (Life Technologies) according to the manufacturer's instructions. After 18 hours, cells were treated as outlined in each experimental design. VEGF promoter activity was analyzed using a Dual-Luciferase Reporter Assay System (Promega), and luciferase activity was normalized by Renilla luciferase as an internal control.

Data set [3] relates to U87MG cells. Briefly: Western blot of PI-3K/Akt-mTOR and MAPK signaling in U87MG cells. It is filed as cell-based, human. As for the experimental part:
U87MG which express NRP-2 were used for this assay.
To determine the effect of SEMA3F on intracellular signaling responses, levels of phosphokinases in the NRP2-expressing human glioblastoma cell line U87MG were profiled.
Western blotting: Proteins within each sample were separated by SDS-PAGE and transferred to nitrocellulose membranes. The membranes were blocked with 4% skimmed milk in TBS-T (0.1% Tween 20 in tris-buffered saline [TBS]) for 30 minutes, followed by incubation with the primary antibody. After washing with TBS-T, membranes were incubated with the appropriate horseradish peroxidase-conjugated secondary antibody, and immunoreactivity was detected by using ECL detection reagents.

Setting [4] is: U87MG cells, 640 ng/ml time course.

Data on one molecule can be found in patent US12397037B2, “Methods and compositions for immunomodulation” (CHILDREN'S MEDICAL CENTER CORPORATION, priority 2014, dated 2025).

B1: SEMA3F: Human recombinant full-length His-Myc-tagged SEMA3F, secreted by transfected 293T cells and purified; class 3 semaphorin, NRP-2 ligand (protein, listed as Homo sapiens)
chain: MLVAGLLLWASLLTGAWPSFPTQDHLPATPRVRLSFKELKATGTAHFFNFLLNTTDYRILLKDEDHDRMYVGSKDYVLSLDLHDINREPLIIHWAASPQRIEECVLSGKDVNGECGNFVRLIQPWNRTHLYVCGTGAYNPMCTYVNRGRRAQATPWTQTQAVRGRGSRATDGALRPMPTAPRQDYIFYLEPERLESGKGKCPYDPKLDTASALINEELYAGVYIDFMGTDAAIFRTLGKQTAMRTDQYNSRWLNDPSFIHAELIPDSAERNDDKLYFFFRERSAEAPQSPAVYARIGRICLNDDGGHCCLVNKWSTFLKARLVCSVPGEDGIETHFDELQDVFVQQTQDVRNPVIYAVFTSSGSVFRGSAVCVYSMADIRMVFNGPFAHKEGPNYQWMPFSGKMPYPRPGTCPGGTFTPSMKSTKDYPDEVINFMRSHPLMYQAVYPLQRRPLVVRTGAPYRLTTIAVDQVDAADGRYEVLFLGTDRGTVQKVIVLPKDDQELEELMLEEVEVFKDPAPVKTMTISSKRQQLYVASAVGVTHLSLHRCQAYGAACADCCLARDPYCAWDGQACSRYTASSKRRSRRQDVRHGNPIRQCRGFNSNANKNAVESVQYGVAGSAAFLECQPRSPQATVKWLFQRDPGDRRREIRAEDRFLRTEQGLLLRALQLSDRGLYSCTATENNFKHVVTRVQLHVLGRDAVHAALFPPLSMSAPPPPGAGPPTPPYQELAQLLAQPEVGLIHQYCQGYWRHVPPSPREAPGAPRSPEPQDQKKPRNRRHHPPDT
modifications: His-Myc tag
notes: Human recombinant full-length His-Myc-tagged SEMA3F, secreted by transfected 293T cells and purified; class 3 semaphorin, NRP-2 ligand
For the molecule B1, the apoptosis result in the data set on U87MG cells [1] was “does not induce apoptosis”. Also, in the data set with U87MG cells [2] (U87MG cells transfected with mTOR overexpression construct, SEMA3F 640 ng/ml, 30 minutes), the “stress fiber formation in mTOR overexpressing cells” value was “minimal effects on stress fiber formation”. For the same molecule, the “stress fiber formation and cytoskeletal arrangement” value with U87MG cells [2] (U87MG cells, SEMA3F 640 ng/ml, rapamycin 10 nM or Torin 1 10 nM, 30 minutes, vs untreated) is “markedly inhibits stress fiber formation and cytoskeletal arrangement”. Further, the “stress fiber formation in raptor-siRNA treated cells” value in the data set on U87MG cells [2] (U87MG cells, siRNA 20 nM, SEMA3F 30 minutes) is recorded as “reduced stress fiber formation”. Moreover, the “inhibition of stress fiber formation” value in the data set on U87MG cells [2] (pcDNA3.1 control vector transfected U87MG cells, SEMA3F 640 ng/ml, 30 minutes) is 90%. The “inhibition of DFO-induced VEGF promoter activity” value in the data set on VEGF promoter (SEMA3F 640 ng/ml pre-treatment 30 minutes, DFO 250 μM, 18 hours) is 43%. In the data set on VEGF promoter (SEMA3F 640 ng/ml, 18 hours culture in 1% O2), the “reduction of hypoxia-induced VEGF promoter activity” value is 44%. In addition, the “VEGF promoter activity in 2DAkt transfected cells” value in the data set with VEGF promoter (SEMA3F 30 minutes prior to DFO) was “failed to attenuate VEGF promoter activity”. In addition, the “pSGK1 (S422) and pPKC (S657)” value in the data set with U87MG cells [3] (U87MG cells) is on record as “inhibited”. In addition, in the data set on U87MG cells [3] (U87MG cells transfected with constitutively active Akt (2DAkt), SEMA3F 640 ng/ml), the “pS6K and pS6 in 2DAkt transfected cells” value was “no change in expression”. In addition, in the data set with U87MG cells [3] (setting [4]), the “persistence of inhibitory effect” value is recorded as “greater than 60 minutes”; the “time within which pAkt (T308 and S473), pmTOR, pS6K and pS6 were inhibited” value was 10-20 minutes. For the same molecule, the “pAkt (S473) in 2DAkt transfectants” value in the data set on U87MG cells [3] (U87MG cells, SEMA3F 640 ng/ml) is reported as “reduced the level of pAkt (S473)”. Also, the “pAkt (T308 and S473) and pS6K” value in the data set on U87MG cells [3] (U87MG cells, SEMA3F 640 ng/ml for 60 minutes vs untreated) was “reduced levels of pAkt (T308 and S473) and pS6K”. The “inhibition of expression of pAkt (S473) (densitometry)” value in the data set with U87MG cells [3] (U87MG cells, SEMA3F ~640 ng/mL, after 10 min) is reported as over 80%. Also, in the data set on U87MG cells [3] (U87MG cells, rapamycin 30 minutes, then SEMA3F and rapamycin for 60 minutes), the “pAkt and pS6K after rapamycin pretreatment” value was “reduced levels of both pAkt and pS6K”. In addition, in the data set on U87MG cells [3] (U87MG cells, siRNA 20 nM, SEMA3F 640 ng/ml), the “pAkt, pS6K and pS6 in NRP2 and Plexin A1-siRNA transfected cells” value is listed as “failed to inhibit”. For the same molecule, the “concentration at which peak effects were observed” value with U87MG cells [3] (U87MG cells, signaling) was about 600 ng/mL. Further, in the data set on U87MG cells [3] (U87MG cells, ~640 ng/mL), the “expression of pERK1/2” value was “markedly reduced” and the “time of peak effect on pERK1/2” value is listed as at most 30 mins. For the same molecule, the “pAkt (S473), pAkt (T308), pmTOR and pS6K” value with U87MG cells [3] (U87MG cells, ~640 ng/mL, by 30 min) was “most significant reduction”. For the same molecule, the “pAkt and pS6K signaling at the lowest concentration” value in the data set with U87MG cells [3] (U87MG, SEMA3F 200 ng/ml, 30 minutes) was “inhibits pAkt and pS6K signaling”.
